Target: Ub-aminomethylcoumarin (Ub-AMC) (UniProt P0CG47)

BAP1N (1-240), wild-type catalytic domain of BAP1, sequence (Q92560 1-240): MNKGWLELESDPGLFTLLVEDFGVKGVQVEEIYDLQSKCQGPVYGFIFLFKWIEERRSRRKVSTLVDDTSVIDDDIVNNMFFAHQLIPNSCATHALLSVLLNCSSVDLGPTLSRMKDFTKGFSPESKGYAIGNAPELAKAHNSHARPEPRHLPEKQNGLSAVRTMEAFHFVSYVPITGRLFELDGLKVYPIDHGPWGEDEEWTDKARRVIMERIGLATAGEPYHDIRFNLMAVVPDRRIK

Substance: BAP1N (1-240), wild-type catalytic domain of BAP1 (from UniProt Q92560 1-240) (domain or fragment)
- Km of Ub-AMC hydrolysis by BAP1N (250 pM enzyme, 100 nM-7.5 µM Ub-AMC, 25°C, double-reciprocal plot): 2.9 µM

— publication PMC5665613
